From PMC10965072

Molecular target: TF-mCCP1 (maize (inbred line B73))
Sequence (Q10716 137-371): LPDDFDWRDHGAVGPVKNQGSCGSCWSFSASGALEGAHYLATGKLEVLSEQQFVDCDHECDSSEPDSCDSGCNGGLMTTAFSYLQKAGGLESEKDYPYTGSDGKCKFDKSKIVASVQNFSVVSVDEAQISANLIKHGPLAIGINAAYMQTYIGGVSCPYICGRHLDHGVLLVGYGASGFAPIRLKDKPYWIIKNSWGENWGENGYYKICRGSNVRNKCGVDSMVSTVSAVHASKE

GST-NIa-Pro (enzyme)
proteolytic activity of recombinant mCCP1 (TF tag removed) on a fluorescein-labeled casein substrate after pre-treatment with 0.5 μM GST-NIa-Pro, against GST: 72 % decrease
